Assay results: the nanobody polyreactivity screen of Harvey et al. (2022)

Test: yeast display, Sf9 membrane polyspecificity reagent, FACS + sequencing; frameworks hold sequencing errors
Outline: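 Galactose-induced (36–48 hours) yeast carrying a synthetic nanobody display library were exposed to 10% biotinylated, detergent-solubilized Sf9 membrane reagent at 4 °C for 1 hour. FACS followed streptavidin microbead enrichment, using low and high (top ~1%) gates for expression (anti-HA) and reagent binding (streptavidin). Colony PCR, MiSeq 2 × 250 sequencing and CDR-length filtering followed. Labels for polyreactivity reflect the gate of origin.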

Sequence | polyreactivity (PSR sort gate)
QVQLVESGGGLVQAGGSLRLSCAASGRIFYGYAMGWYRQAPGKERELVAAITRGGSTYYADSVKGRFTISRDNAKNTVYLQMNSLKPEDTAVYYCAAVIYSYRSYREYGYWGQGTQVTVSS | high polyreactivity
QVQLVESGGGLVQAGGSLRLSCAAYGRTLRPYAMGWYRQAPGKERELVASIRRDGSTYADSVKGRYTISLDNAKNTVYLQMNSLKPEDTAVYYCAAARGYPLSYWGQGTQVTVSS | low polyreactivity
QVQLVDSGGGLVQAGGSLRLSSAASGRTFRYYTMGWYRQAPGKERELVAGISRSGANTYYADSVKGRFTISRDNAKNSVYLQMNSLKPEDTAVYYCNAVYGTYDWGQGTQVTVSS | high polyreactivity
QVQLVESGGGLVQAGGSLRLSCAASGRIFGINGMGWYRQAPGKERELVAAITWIGGRTYYADSVKGRFTISRDNAKNTVYLQMNSLKPEDTAVYYCNAVYTQRFATYRRYDYWGQGTQVTVSS | high polyreactivity
QVQLVESGGGLVQAGGSLRLSCAASGNIFGLNSMGWYRQAPGIDRELVSAISKSGGSTFYADSVKGRFKISRDNAKNTVYLQMNSLKPEDTAVYYCAARWNGARPNHTYGYWGQGTQVTVSS | high polyreactivity
QVQLVESGGGFVQAGGSLRLSCAASGRIFAFYTMGWSRQAPGKEREFVAAISRSGGSTYYADSVKGRFTISRDNAKNTVYLQMNSLKPEDTAVYYCAKGGYSPKRVKYYDYWGQGTQVTVSS | low polyreactivity
QDQLVESWGGLVQAGGSLRLICASSGSNIGYNAMGWYRPAPVKERELVAAISYSGGSTYYADSVKGRFTISRDNAKNTVYFRMNSLKPEDTAVYYCNKYIRRYLIYGSWGQGSQVTVSS | high polyreactivity
QVQLVESVGGLVQAGGSLRLSCAASGITFDDYAMGWYRQAPGKERELVAVISSSGGSTYYADSVKGRFTISRDNAKNTVYLQMNSLKPEDTAVYYCAARFEVWYTRRVLLGEYDYWGQGTQVTVSS | low polyreactivity
QVQLVESGGGLVQAGGSLRLSCAASGFTFFYYVMGWYRQAPGKERELVAAITRGGSTYYADSVKGRFTISRDNAKNTVYLQMNSLKPEDTAVYYCNVAEPGYYYGYGDYGMDYWGQGTQVTVSS | high polyreactivity
QVQLVESGGGLVQAGGSLRLSCAASGLILGYYAMGWYRQAPGKERELVAAISSTGSTNYADSVKGRFTISRDNAKNTVYLQMNSLKPEDTAVYYCAAVPPRKDYQHMDYWGQGTQVTVSS | low polyreactivity
QVQLVESGGGLVQAGASLRLSCAASGIIFPRYAMGWSRQAPGKERDLVAAISYSGGSTYYADSVKGRFTISRDNAKNTVYLQMNSLKPEDPAVYYCAAKWGWKVGYSYYYWGQGTQVTVSS | high polyreactivity
QVQLVESGGGLVQAGGSLRLSCAASGITFWNYAMGWYRQAPGKERELVARISRGGSTNYADSVKGRFTISRDNAKNTVYLQMNSLKPEDNAVYYCAARWYSSTQTGNYWGQGTQVTVSS | high polyreactivity
QVQLVESGVGLVQAGGSLRLSCAASGFTISYYTIGWSRQAPGKDRELVAAISSTGVSTYYADSVKGRFTISRDTAKNTVYLPLNSLKPEDTSVYYCAADYYGVYEYYYWGQGTQVTVSS | high polyreactivity
QVQLVESGGGLVQAGGSLRLSCAASGFTFEENAMGWYRPAPGKERELVAAINWSGGNTYYADSVKGRFTISRDNAKNPDSLQMNSLKPEDSAVYYCNAAGAGDDYDYWGQGTQVTVSS | high polyreactivity
QVQLVESGGGIVQEGGSLRLSCAASGRIFGTNAMGWYRQAPGKERELVATITRGGGNTYYADSVKGRFTISRDNAKNTVYLQMKSLKPEDTAVYYCAAKFHRFAWYSHYDYWGQGTQVTVSS | low polyreactivity
QVQLVESGGGLVQAGGSLRFSCAASGSIFPYAMGWSIQEPGKERELVAAITSGVRTNYADSVKGRFTISRDNAKNPVDLQMNSLKPEATEVYYCAVLPRGSNGMDYWGQGTQVTVSS | low polyreactivity
QVQLVESGGGLVQAGGSLRLSCAASGIIFNYYAMGWYRQAPGKERELVAAISFSGGRTYYADSVKGRFTISRDNAKNTVYLQMNCLKPEDTAVYYCNAVYRNSILAFPGEYDYWGQGTQVTVSS | high polyreactivity
QVQLVESGGGLVQAGGSLRLSCAASGFTFFLNAMVWSRPAPGKERELVAAITYSGDSTYYADSVKGRFTISRDNAKNTVYLQMNSLKPEDTAVYYCAAASKFGLYEYEYWGQGTQVTVSS | low polyreactivity
QVQLVESGGGLVQAGGSLRLSCADSGLIFTQYAMGWYIQAPGKEREFVAAITWNGGRTYYADSVKGRFTISRDNAKNTVYLQMNSLKPEDTAVYYCATRNTRFHLDYWGQGTQVTVSS | high polyreactivity
QVQLVETGRGLVQAGGSLRLSCAASGLILVPNTMGWYRQAPGTERELVAAISYSGGGPYYADSVKGRFTLSRDNATNTVYLQMNSLKPEDTAVYSCAAYDKRESPPYGYWGQGTQVTVSS | low polyreactivity
QVQLQESGGGLVQAGGSLRQSYAASGYIFPSLAMGWYRQAPGKEREFVAAIGRGSTNNYADSLKGRFTISRDNEKNTAYQQMNSLKPEVTAVYYCAADASPLTRHLYWGQGTQVTVSS | low polyreactivity
QVQLVESGGGLVQAGGSLRLSCAASGSIFRSYAMGWYRQAPGKEREFVAAIRNSSGRTYYADSVKGRFTISRDNAKNTVYLQMNSLKPEDTAVYYCAARLPRTYQGGKLYRLQYSWGQGTQVTVSS | high polyreactivity
QVKHVESGGGLVQAGCILRLSCSASGSTFARYAMGWYRQSPGKERELVAGISQSGGTTYYADSVKGRFTISRDNEKNTVYLQMNSLKPEDTAVYYCAARRWVAYTLEYWGQGTQVTVSS | high polyreactivity
QVQLVESGGGLVQAGGSLRLSCAASGGTFYRYAMGWYRQAPGKEMELVAAISSRGGSTYYADSVKGRFTISRDNAKNTVYLQMNSLKPEDTAVYYCAALFYLTPWQYDYWGQGTQVTVSS | high polyreactivity
QVQLVESAGGLVQAGVSRRLSFAASGSIFGDYAMGWYRQAPGTERELVATITWIGGSTYYADSVKGRFTISRDNAKNTVYLQMNSLIPEDTAVYYCAATKYVDVKYYYWGQGTQVTLSS | low polyreactivity
QVQLVESGGGLVLAGGSLRLSCAASGRIFTNNVMGWYRQAPGKERELVAAISRSGGRTYYADSVKGRFTISRDNAKNTVYLQMNSLKPEDTAVYYCAAVYQKAATDKYESVYESYYWGQGTQVTVSS | high polyreactivity
QVQLVESGGGLVQAGVSLRLSCAASGRTFGQYVMGWYRQAPGKERELVAAIRSGGSTYYADSVKGLFTISRDNAKNTVYIQLNSLKPEDTAVYYCNADSGPIDGRGGYWGQGTQVTVSS | low polyreactivity
QVQIVDSGGGLVQAGGSLRLSCAASGSTFRAYAMGWYRQSPGKEWELVAAISSSGGSTYYADSVKGRFTISRDNAKITVYLQMNSLKPEDTAVYYFAAAFLAAGRNVRYYWGQGTQVTVSS | high polyreactivity
QVQLVESGGGLVQAGGSHRLSCASYGLIFESYVMGWDRQAPGKERELVAAIRSSGGSTYYADSVKGRFTISRDNAKNTVYLQMNCLNPEDTAVYYCAANYYYYLTISWWYAYDYWGQGTQVTVSS | low polyreactivity
QVQLVESGGGLVQAGGSLRLSCAASGSIFRWYAMGWYRQAPGKERELVAAITWSASRTYYADSVKGRFTISRDTAKNTVYLQMNSLKPEDTAVYYCAADHDGPYAGYDSWRQGTQVTVSS | low polyreactivity
